In doi:10.1101/2022.01.09.475567:

Biological target: NP:WT-C-His (nucleoprotein) (Influenza A virus A/Puerto Rico/8/1934 …, UniProt P03466 1-498)
Test: BLI

Sequence of NP:WT-C-His (nucleoprotein) (P03466 whole entry): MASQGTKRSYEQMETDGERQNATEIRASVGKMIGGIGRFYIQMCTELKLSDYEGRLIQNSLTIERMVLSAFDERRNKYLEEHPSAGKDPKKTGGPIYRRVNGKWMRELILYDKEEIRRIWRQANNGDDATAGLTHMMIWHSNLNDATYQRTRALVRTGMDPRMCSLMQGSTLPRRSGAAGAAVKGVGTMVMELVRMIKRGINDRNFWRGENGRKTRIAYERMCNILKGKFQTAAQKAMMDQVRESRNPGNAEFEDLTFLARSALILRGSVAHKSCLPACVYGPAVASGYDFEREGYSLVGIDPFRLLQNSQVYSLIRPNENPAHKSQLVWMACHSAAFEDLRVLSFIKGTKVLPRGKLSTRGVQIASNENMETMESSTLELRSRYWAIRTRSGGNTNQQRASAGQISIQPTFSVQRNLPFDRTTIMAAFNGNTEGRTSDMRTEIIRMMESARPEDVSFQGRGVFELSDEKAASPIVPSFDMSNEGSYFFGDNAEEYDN

UUUGUUACACACACACACGCUGUG (ssRNA) [24nt ssRNA]
Kd: 2.48 ± 0.091 nM
